Data set [1] can be described thus: Biodistribution in mice bearing subcutaneous H69 tumor xenografts. It is filed as in vivo. The following applies: female, NCI Athymic NCr-nu/nu, mouse, 37 kBq, total radioactivity; for tissue uptake at 4 h: 4 h after injection, read-out: kidney percentage injected activity per gram of tissue; for tissue uptake at 2 h: 2 h after injection; for tissue uptake at 2 h / tissue uptake at 24 h: H69 xenograft mice, n = 3, read-out: tumor uptake, percentage injected activity per gram of tissue; for tissue uptake at 24 h: 24 h after injection. Here is the method: All procedures and animal studies followed a protocol approved by the National Institutes of Health Institutional Animal Care and Use Committee (protocol ROB104). Female athymic homozygous nude mice (NCI Athymic NCr-nu/nu strain 553; Charles River Laboratories), 8–10 wk old, were subcutaneously engrafted with 8 × 10^6 H69 cells in 200 μL of ice-cold phosphate-buffered saline. Treatment of tumors with radiotracers for biodistribution or therapy studies was performed once palpable tumors developed, approximately 1 mo after inoculation. […] Full experimental details for the biodistribution experiments are reported in the supplemental information.
(C) Corresponding tumor-to-tissue ratios for selected organs with lysine pretreatment. Full 12-organ biodistribution data are reported in Supplemental Figures 8–11. Error bars represent SD. ***P < 0.005. […]. %IA/g = percentage injected activity per gram of tissue.

Details of data set [2]: method as in PMID 33772332. The note with it: cited from earlier work.
Details of data set [3]: method as in PMID 33772332. The following applies: 148 kBq; cited from earlier work.
Data set [4] is described as follows: Serum stability in human serum at 37°C by ITLC. It is filed as in vitro ADME. The following applies: for remaining at 240 h, 370 kBq/mL: human serum (EMD Millipore), pH 7.4, 370 kBq in 1 mL, up to 10 d, read-out ITLC, read-out: intact conjugate remaining in human serum; for stability in human serum: ITLC. As to the method:
Radiochelate was diluted to 370 kBq in 1 mL of human serum and placed on an Eppendorf ThermoMixer set to 37°C. At fixed intervals, aliquots were removed from the reactions and analyzed by ITLC as described in the supplemental information.

Data set [5] can be described thus: Dose-finding study in mice bearing H69 tumor xenografts. The data set is classed as in vivo. The note with it: D-lysine pretreatment. An excerpt:
The promising biodistribution profile of ^225Ac-MACROPATATE led us to investigate its therapeutic efficacy. […] All mice in the 148-kBq treatment group (10/10) and 1 of 3 mice in the 92.3-kBq group were euthanized within 10 d of treatment because of substantial weight loss (>20%).

The next data set deals with H69 lung NET xenografts. The data set is described as follows: Head-to-head therapy study in mice engrafted with H69 cells. It is filed as in vivo. The following applies: 46.3 kBq. Here is the method:
Animals engrafted with H69 cells were treated with either of the 2 radioconjugates or saline (n = 8–10, each). Local control and survival were the primary outcomes. All groups were tracked for humane endpoints including, but not limited to, tumors larger than 2,000 mm^3 and weight loss greater than 20%.
FIGURE 5. […] (A) Tumor volume measurements over time. Solid lines represent average volume, and dashed lines represent 95% CI. Plots for each dataset are discontinued after first mouse death due to excessive tumor volume. Full tumor volume measurements for study duration for each mouse are reported in Supplemental Figures 15–17. (B) Maximal response to treatment (tumor volume growth percentage) of individual mice. Nonresponding mice are represented as full tumor growth (2,000% increase). (C) Mouse survival over time. Endpoint was defined as tumor volume > 2,000 mm^3 or weight loss over 20% of starting weight. (D) Average mouse body weights over time for each treatment group. Error bars represent SD. ***P < 0.005. *P < 0.05.

The conditions of data set [6]: 8 d; cited from earlier work. As to the method:
DOTA and its derivatives are used to chelate ^225Ac and many of the previously mentioned radionuclides. However, to chelate ^225Ac with DOTA to yield high-specific-activity radioconjugates, temperatures above 70°C are typically required. Even if these temperatures are used, the resulting complex’s thermodynamic stability ([19]) and labeling kinetics are suboptimal ([20]).

Read-outs that look alike come from different tables or passages of the source.

By share remaining is commonly meant the share of the starting amount still present when the sample was taken.

Consider `C[C@@H](O)[C@H](NC(=O)[C@@H]1CSSC[C@H](NC(=O)[C@@H](Cc2ccccc2)NC(=O)CN2CCN(CC(=O)O)CCN(CC(=O)O)CCN(CC(=O)O)CC2)C(=O)N[C@@H](Cc2ccc(O)cc2)C(=O)N[C@H](Cc2c[nH]c3ccccc23)C(=O)N[C@@H](CCCCN)C(=O)N[C@@H]([C@@H](C)O)C(=O)N1)C(=O)O` [^225Ac-DOTATATE, metal not drawn, reference compound], for which the tissue uptake at 4 h in data set [1] (kidney, after D-lysine administration (35 mg/mouse)) was determined as 3.1 %ID/g. Also, in data set [1] (kidney, without D-lysine), the tissue uptake at 4 h turned out to be 6 %ID/g. Also, in data set [1] (tumor), the tissue uptake at 2 h stood at 5 %ID/g and the tissue uptake at 24 h was found to be 2 %ID/g. Besides, in data set [2], the “intact 225Ac-DOTATATE after 10 d” value is listed as 90%. Also, the tolerability in mice result in data set [3] is given as “well tolerated”. For the same compound, in data set [4], the fraction remaining at 240 h, 370 kBq/mL was 95% and the “stability in human serum” value was “stable to 10 d”.

`C[C@@H](O)[C@H](NC(=O)[C@@H]1CSSC[C@H](NC(=O)[C@@H](Cc2ccccc2)NC(=S)Nc2cc(CN3CCOCCOCCN(Cc4cccc(C(=O)O)n4)CCOCCOCC3)nc(C(=O)O)c2)C(=O)N[C@@H](Cc2ccc(O)cc2)C(=O)N[C@H](Cc2c[nH]c3ccccc23)C(=O)N[C@@H](CCCCN)C(=O)N[C@@H]([C@@H](C)O)C(=O)N1)C(=O)O` [^225Ac-MACROPATATE, metal not drawn]: in data set [1] (in vivo), the tissue uptake at 2 h is 9 %ID/g and the tissue uptake at 24 h was 4 %ID/g. In addition, the tissue uptake at 4 h in data set [1] (in vivo, after D-lysine administration (35 mg/mouse)) was found to be 5.2 %ID/g. The tissue uptake at 4 h in data set [1] (in vivo, without D-lysine) was found to be 11.5 %ID/g. Also, the “mice euthanized within 10 d of treatment because of substantial weight loss (>20%)” value in data set [5] (92.3-kBq group) is recorded as 1 of 3. Besides, in data set [5] (148-kBq treatment group), the “mice euthanized within 10 d of treatment because of substantial weight loss (>20%)” value was 10/10. In addition, in data set [4], the fraction remaining at 240 h, 370 kBq/mL came out at 98% and the “stability in human serum” value is “stable to 10 d”. In addition, in the data set with H69 lung NET xenografts, the “duration of initial reduction in tumor volume after treatment” value is reported as “approximately 3 wk” and the “mice whose tumors subsequently relapsed” value is reported as 7 of 8. This compound also displayed a median survival in the data set on H69 lung NET xenografts (H69 xenograft mice, n = 8-10, vehicle 26 d, log rank P = 0.0006) of 55 days.

Turning to `O=C([O-])c1cccc(CN2CCOCCOCCN(Cc3cccc(C(=O)[O-])n3)CCOCCOCC2)n1.[225Ac+3]` [^225Ac-MACROPA], in data set [6], the “stability in C57BL6 mice compared with 225Ac-DOTA” value is listed as “comparable stability” and the “stability in human serum compared with 225Ac-DOTA” value is “comparable stability”.
